Values of other authors as cited in article PMC7717565, “Structure of the Lifeact–F-actin complex” (PLoS Biology, 2020).

Target: F-actin (Oryctolagus cuniculus) (UniProt P68135)

- Kd: 13.2 µM
Substance: Lifeact Lifeact (from UniProt Q08641)
